Laboratory results as given in US20210032664, “ENGINEERED MEGANUCLEASES WITH RECOGNITION SEQUENCES FOUND IN THE HUMAN BETA-2 MICROGLOBULIN GENE” (Precision Biosciences, Inc., published 2021).

How the values were obtained:
Assay in all cases: cell_activity; human T cells, 1 ug mRNA, day 3
Details in all cases: tags: N-terminal SV40 NLS
B2M 13-14x.93 QE = target: T1, B2M 13-14x.93 QE (Artificial Sequence)
T1 chain: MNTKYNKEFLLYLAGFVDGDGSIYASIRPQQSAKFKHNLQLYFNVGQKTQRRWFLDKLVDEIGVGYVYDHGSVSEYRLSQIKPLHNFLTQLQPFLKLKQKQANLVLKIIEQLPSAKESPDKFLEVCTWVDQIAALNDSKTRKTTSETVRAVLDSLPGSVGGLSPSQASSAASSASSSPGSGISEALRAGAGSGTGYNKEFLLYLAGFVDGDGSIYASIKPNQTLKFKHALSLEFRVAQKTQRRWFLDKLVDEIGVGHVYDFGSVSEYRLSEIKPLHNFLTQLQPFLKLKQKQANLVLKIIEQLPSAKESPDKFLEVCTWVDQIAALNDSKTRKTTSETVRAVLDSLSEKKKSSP
Description: (§1) To test these variants of B2M 13-14x.93, donor human T cells were stimulated with anti-CD3 and anti-CD28 antibodies for 3 days, then electroporated with mRNA encoding a given B2M 13-14 meganuclease (1 μg) using the Amaxa 4D-Nucleofector (Lonza) according to the manufacturer's instructions. At 3 days post-electroporation, cells were stained with an antibody recognizing β-2 microglobulin (BD Biosciences) and analyzed by flow cytometry.

B2M 13-14x.93 EEK66 = target: T2, B2M 13-14x.93 EEK66 (Artificial Sequence)
T2 chain: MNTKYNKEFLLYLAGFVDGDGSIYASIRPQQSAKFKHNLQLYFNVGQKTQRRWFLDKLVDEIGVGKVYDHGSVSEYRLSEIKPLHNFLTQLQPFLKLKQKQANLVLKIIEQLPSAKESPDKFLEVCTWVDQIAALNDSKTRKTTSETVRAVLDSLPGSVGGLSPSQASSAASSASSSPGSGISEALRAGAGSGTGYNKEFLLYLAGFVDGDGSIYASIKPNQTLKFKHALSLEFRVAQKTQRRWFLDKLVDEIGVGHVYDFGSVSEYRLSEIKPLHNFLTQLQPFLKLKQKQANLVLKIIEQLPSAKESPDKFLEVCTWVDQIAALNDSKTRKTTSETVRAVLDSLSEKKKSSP
Description: as §1

B2M 13-14x.93 EEY66 = target: T3, B2M 13-14x.93 EEY66 (Artificial Sequence)
T3 chain: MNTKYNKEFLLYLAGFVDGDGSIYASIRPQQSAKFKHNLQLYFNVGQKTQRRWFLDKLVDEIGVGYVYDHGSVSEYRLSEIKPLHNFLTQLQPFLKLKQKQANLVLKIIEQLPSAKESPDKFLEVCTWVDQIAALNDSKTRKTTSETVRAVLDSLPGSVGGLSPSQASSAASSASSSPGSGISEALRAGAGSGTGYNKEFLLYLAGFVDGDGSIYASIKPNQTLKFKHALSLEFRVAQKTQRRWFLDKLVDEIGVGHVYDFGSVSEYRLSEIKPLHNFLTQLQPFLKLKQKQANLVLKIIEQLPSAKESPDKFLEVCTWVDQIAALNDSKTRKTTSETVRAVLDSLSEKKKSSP
Description: as §1

B2M 13-14x.93 EQK66 = target: T4, B2M 13-14x.93 EQK66 (Artificial Sequence)
T4 chain: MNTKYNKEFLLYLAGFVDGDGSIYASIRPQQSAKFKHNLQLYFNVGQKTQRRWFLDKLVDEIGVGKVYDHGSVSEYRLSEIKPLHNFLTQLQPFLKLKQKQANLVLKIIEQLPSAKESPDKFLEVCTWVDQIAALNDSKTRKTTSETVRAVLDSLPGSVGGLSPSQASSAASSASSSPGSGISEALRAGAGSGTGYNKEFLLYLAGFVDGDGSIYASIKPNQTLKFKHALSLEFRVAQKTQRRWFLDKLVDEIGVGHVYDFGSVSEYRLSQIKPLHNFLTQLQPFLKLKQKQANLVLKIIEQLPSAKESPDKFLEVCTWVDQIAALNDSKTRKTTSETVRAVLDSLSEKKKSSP
Description: as §1

B2M 13-14x.93 QQK66 = target: T5, B2M 13-14x.93 QQK66 (Artificial Sequence)
T5 chain: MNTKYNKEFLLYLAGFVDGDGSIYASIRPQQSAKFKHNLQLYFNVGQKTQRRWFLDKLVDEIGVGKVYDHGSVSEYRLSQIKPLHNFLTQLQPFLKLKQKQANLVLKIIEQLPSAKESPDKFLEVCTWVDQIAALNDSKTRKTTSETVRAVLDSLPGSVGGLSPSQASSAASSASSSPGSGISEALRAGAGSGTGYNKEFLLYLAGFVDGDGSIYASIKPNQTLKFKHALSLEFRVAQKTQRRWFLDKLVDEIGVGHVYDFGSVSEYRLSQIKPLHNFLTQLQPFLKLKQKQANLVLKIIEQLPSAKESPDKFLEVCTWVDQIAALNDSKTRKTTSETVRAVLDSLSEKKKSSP
Description: as §1

B2M 13-14x.93 EQ = target: T6, B2M 13-14x.93 EQ (Artificial Sequence)
T6 chain: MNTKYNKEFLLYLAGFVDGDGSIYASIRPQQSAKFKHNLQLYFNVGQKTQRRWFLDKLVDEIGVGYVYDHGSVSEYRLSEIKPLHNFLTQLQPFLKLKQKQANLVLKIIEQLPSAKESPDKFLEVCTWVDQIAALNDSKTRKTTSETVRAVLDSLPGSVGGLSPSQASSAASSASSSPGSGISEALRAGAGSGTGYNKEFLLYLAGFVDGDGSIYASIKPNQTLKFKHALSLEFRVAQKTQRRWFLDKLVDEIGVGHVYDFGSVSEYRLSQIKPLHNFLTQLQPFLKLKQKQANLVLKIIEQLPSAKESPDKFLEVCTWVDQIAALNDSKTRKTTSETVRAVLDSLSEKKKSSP
Description: as §1

B2M 13-14x.93 EE = target: T7, B2M 13-14x.93 EE (Artificial Sequence)
T7 chain: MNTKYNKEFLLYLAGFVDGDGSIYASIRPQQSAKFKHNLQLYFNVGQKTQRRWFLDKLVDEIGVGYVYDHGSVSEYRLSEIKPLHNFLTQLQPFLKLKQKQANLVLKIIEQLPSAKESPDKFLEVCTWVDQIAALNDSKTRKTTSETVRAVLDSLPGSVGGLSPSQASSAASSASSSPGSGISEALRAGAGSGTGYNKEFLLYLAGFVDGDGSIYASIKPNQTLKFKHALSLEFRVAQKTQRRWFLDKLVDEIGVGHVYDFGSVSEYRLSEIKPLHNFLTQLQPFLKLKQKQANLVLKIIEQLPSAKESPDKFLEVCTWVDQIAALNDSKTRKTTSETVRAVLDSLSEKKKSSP
Description: as §1

B1: B2M 13-14 recognition sequence (dsDNA)
DNA 1: CTATCTCTTGTACTACACTGAA
DNA 2: TTCAGTGTAGTACAAGAGATAG
activity (B2M 13-14x.93 QE): 37 % B2M-negative
activity (B2M 13-14x.93 EEK66): 3.84 % B2M-negative
activity (B2M 13-14x.93 EEY66): 1.58 % B2M-negative
activity (B2M 13-14x.93 EQK66): 6.81 % B2M-negative
activity (B2M 13-14x.93 QQK66): 2.64 % B2M-negative
activity (B2M 13-14x.93 EQ): 5.13 % B2M-negative
activity (B2M 13-14x.93 EE): 18.3 % B2M-negative
